Consider four molecules from PMC12635197, “Discovery of first-in-class inhibitors of the TRF1:TIN2 protein:protein interaction by fragment screening” (Scientific Reports, 2025).

T1: (StrepII)2-TEV-tagged TIN2, subunit of recombinant shelterin (UniProt Q9BSI4-1 1-451)
T1 construct: TIN2, gene NM_001099274.1, codon-optimised; a TEV site lies between tag and protein; The separately made control protein is called TIN2L; The discussion says that the complex carries a short peptidic tag on TIN2; source: Sf9, co-expressed with the other shelterin subunits (MultiBac baculovirus), purified (StrepTrap, serial SEC)
T1 sequence (looked up): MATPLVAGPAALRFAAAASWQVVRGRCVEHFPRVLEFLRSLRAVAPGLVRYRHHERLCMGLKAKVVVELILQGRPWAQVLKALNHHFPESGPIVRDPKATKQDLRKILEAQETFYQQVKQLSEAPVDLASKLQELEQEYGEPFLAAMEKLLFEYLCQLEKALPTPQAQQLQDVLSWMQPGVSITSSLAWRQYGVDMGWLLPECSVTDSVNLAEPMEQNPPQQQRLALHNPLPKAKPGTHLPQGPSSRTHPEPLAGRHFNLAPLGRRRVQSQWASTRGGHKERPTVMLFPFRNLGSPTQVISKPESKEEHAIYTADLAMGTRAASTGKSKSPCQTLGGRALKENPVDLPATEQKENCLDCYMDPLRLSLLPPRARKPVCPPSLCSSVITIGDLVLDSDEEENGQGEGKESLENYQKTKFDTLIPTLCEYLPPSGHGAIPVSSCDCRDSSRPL

B1: RAP1, subunit of recombinant shelterin (natural protein, UniProt Q9NYB0 1-399, looked up)
chain: MAEAMDLGKDPNGPTHSSTLFVRDDGSSMSFYVRPSPAKRRLSTLILHGGGTVCRVQEPGAVLLAQPGEALAEASGDFISTQYILDCVERNERLELEAYRLGPASAADTGSEAKPGALAEGAAEPEPQRHAGRIAFTDADDVAILTYVKENARSPSSVTGNALWKAMEKSSLTQHSWQSLKDRYLKHLRGQEHKYLLGDAPVSPSSQKLKRKAEEDPEAADSGEPQNKRTPDLPEEEYVKEEIQENEEAVKKMLVEATREFEEVVVDESPPDFEIHITMCDDDPPTPEEDSETQPDEEEEEEEEKVSQPEVGAAIKIIRQLMEKFNLDLSTVTQAFLKNSGELEATSAFLASGQRADGYPIWSRQDDIDLQKDDEDTREALVKKFGAQNVARRIEFRKK
notes: RAP1 (TRF2-associated shelterin subunit), gene NM_018975.3, codon-optimised
B2: TRF2 (telomeric repeat-binding factor 2), subunit of recombinant shelterin (natural protein, UniProt Q15554-3 1-542, looked up)
chain: MAAGAGTAGPASGPGVVRDPAASQPRKRPGREGGEGARRSDTMAGGGGSSDGSGRAAGRRASRSSGRARRGRHEPGLGGPAERGAGEARLEEAVNRWVLKFYFHEALRAFRGSRYGDFRQIRDIMQALLVRPLGKEHTVSRLLRVMQCLSRIEEGENLDCSFDMEAELTPLESAINVLEMIKTEFTLTEAVVESSRKLVKEAAVIICIKNKEFEKASKILKKHMSKDPTTQKLRNDLLNIIREKNLAHPVIQNFSYETFQQKMLRFLESHLDDAEPYLLTMAKKALKSESAASSTGKEDKQPAPGPVEKPPREPARQLRNPPTTIGMMTLKAAFKTLSGAQDSEAAFAKLDQKDLVLPTQALPASPALKNKRPRKDENESSAPADGEGGSELQPKNKRMTISRLVLEEDSQSTEPSAGLNSSQEAASAPPSKPTVLNQPLPGEKNPKVPKGKWNSSNGVEEKETWVEEDELFQVQAAPDEDSTTNITKKQKWTVEESEWVKAGVQKYGEGNWAAISKNYPFVNRTAVMIKDRWRTMKRLGMN
notes: TRF2, gene NM_005652.4, codon-optimised
B3: TPP1, subunit of recombinant shelterin (natural protein, UniProt Q96AP0 1-458, looked up)
chain: MAGSGRLVLRPWIRELILGSETPSSPRAGQLLEVLQDAEAAVAGPSHAPDTSDVGATLLVSDGTHSVRCLVTREALDTSDWEEKEFGFRGTEGRLLLLQDCGVHVQVAEGGAPAEFYLQVDRFSLLPTEQPRLRVPGCNQDLDVQKKLYDCLEEHLSESTSSNAGLSLSQLLDEMREDQEHQGALVCLAESCLTLEGPCTAPPVTHWAASRCKATGEAVYTVPSSMLCISENDQLILSSLGPCQRTQGPELPPPDPALQDLSLTLIASPPSSPSSSGTPALPGHMSSEESGTSISLLPALSLAAPDPGQRSSSQPSPAICSAPATLTPRSPHASRTPSSPLQSCTPSLSPRSHVPSPHQALVTRPQKPSLEFKEFVGLPCKNRPPFPRTGATRGAQEPCSVWEPPKRHRDGSAFQYEYEPPCTSLCARVQAVRLPPQLMAWALHFLMDAQPGSEPTPM
notes: TPP1 (shelterin subunit), gene BC016904.1, codon-optimised
B4: POT1, subunit of recombinant shelterin (natural protein, UniProt Q9NUX5-1 1-634, looked up)
chain: MSLVPATNYIYTPLNQLKGGTIVNVYGVVKFFKPPYLSKGTDYCSVVTIVDQTNVKLTCLLFSGNYEALPIIYKNGDIVRFHRLKIQVYKKETQGITSSGFASLTFEGTLGAPIIPRTSSKYFNFTTEDHKMVEALRVWASTHMSPSWTLLKLCDVQPMQYFDLTCQLLGKAEVDGASFLLKVWDGTRTPFPSWRVLIQDLVLEGDLSHIHRLQNLTIDILVYDNHVHVARSLKVGSFLRIYSLHTKLQSMNSENQTMLSLEFHLHGGTSYGRGIRVLPESNSDVDQLKKDLESANLTANQHSDVICQSEPDDSFPSSGSVSLYEVERCQQLSATILTDHQYLERTPLCAILKQKAPQQYRIRAKLRSYKPRRLFQSVKLHCPKCHLLQEVPHEGDLDIIFQDGATKTPDVKLQNTSLYDSKIWTTKNQKGRKVAVHFVKNNGILPLSNECLLLIEGGTLSEICKLSNKFNSVIPVRSGHEDLELLDLSAPFLIQGTIHHYGCKQCSSLRSIQNLNSLVDKTSWIPSSVAEALGIVPLQYVFVMTFTLDDGTGVLEAYLMDSDKFFQIPASEVLMDDDLQKSVDMIMDMFCPPGIKIDAYPWLECFIKSYNVTNGTDNQICYQIFDTTVAEDVI
notes: POT1 (shelterin subunit), gene NM_015450, codon-optimised

The target in the assay is T1, (StrepII)2-TEV-tagged TIN2, subunit of …. Briefly: mass photometry; SEC-purified shelterin without compound; complex of around 700 kDa; 50 mM HEPES-NaOH pH 8.0, 300 mM NaCl. As to conditions: both partners purified.
Turning to B1, the “stoichiometry N” value came out at 4 RAP1 per TIN2.
Regarding B2, the “stoichiometry N” value was 4 TRF2 per TIN2.
In the case of B3, the “stoichiometry N” value came to 1 TPP1 per TIN2.
For B4 the value was 1 POT1 per TIN2.

Usually stoichiometry N stands for a count of units in the complex or per binding partner.
